# Measurements as given in a protein production outcome set (Wang et al. 2014).
# Assay: label from the status in PepcDB records
# 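Note: failed if final PepcDB status was selected cloned or expressed and not failed if soluble or beyond.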
row,Sequence,protein production
1,MARSIDYGNLMHRAMRGLIQSVLEDVAEHGLPGAHHFFITFDTTHPDVAMADWLRARYPQEMTVVIQHWYENLSADDHGFSVTLNFGNQPEPLVIPFDAVRTFVDPSVEFGLRFETHEEDEEEETGGDEDPDGDDEPPRHDAQVVSLDKFRKLEHHHHHH,failed
2,MARSSSFLDNLLTSPSTERYRVGLSVLFLLCVWLVVGSFSQGLPNAMLLMAAAVIGGYMAINIGANDVANNVGPAVGSGALSLGAAVLLAAVFEAAGALIAGGDVVSTIKGGIIDPTSLEDPRAFVWLMTAALLAGALWLNLATWMGAPVSTTHSIVGGVLGAGIAAGGWAIADWAVMGKIAASWVISPVLGGALAALFLFAIKKTVLYRQNLVSSARTFVPWLVAIMAWAFATYLMIKGVKKIVKVDMVEASVIGLIVAGVVFFVMRTLVGRKASTMENSAQGVNTLFTWPLIFAAALLSFAHGANDVANAIGPLAAINDAIQAGGGVVTSAKIPLWVMLVGALGLAVGLMLFGPRLIKTVGSEITELDKTRAFCIALSAALTVILASQLGLPVSSTHIAIGGVFGVGFLREYLKSNYATQLHKIIEQHDPTDQERLKPFLDDFRNASVEEMEKLLKQAKKKKQQVPLSKSERKRLKKIYREEMVKRSHLVKIAAAWIITVPASAIMAAFLFFTLRGLMV,failed
3,MASDAPTGHVSDLDWLMSGLVQRVPHTTSAVLLSCDGLVKSVHGLDPDSADHMAALASGLYSLGRSAGIRFGDGGDVRQVVVELDSTLLFVSTAGSGTCLAVLAGREADAAVLGYEMAMLVKSVRPYLMTAPRQAAAQPPAMRP,failed
4,MASEHHEALNLYAVRVARGEGVKQDFARAASLFRRADRCGFNCEPVYDDMVNDFRDKAFGMELVSSKRAFLKALRPETAEARCTVGEAFIGQGDADSLRTGRELLTSAATLGSGKAMYLLGVLCRDGKGVAANAERAFMWFSLAASCGFAKAESERVNAEGKLDDAGRTRAMQLAARWRRQYLAPVCLEHHHHHH,failed
5,MASEREQISRKVALIALIANLILMAGKVFFGLVGDSEAVFADGIHSAADVVASIAVLAVIGISNKPPDQDHPFGHGKAEVISEAIVGIILVIVSVYILIEAILSFVKGPSVPQYSALFAALISYVAKEILYRYSIKQGKKWNSKAIIAIAYDHKGDIVASLAAFIGVLLAIIGNSRGWSYLLYADAIASAIVAYLIFKISMELIRPSVGVLMEKSVDPELIEEYKAVIFQCDQVKRIDRIRAREHGHYKLLDVRLSLDHDLTIKQGHDIAREIRNEIKRQFSDVEEVLIHVNPYFEE,failed
6,MASFQQYKTKTGYKWLFKMGVGIDPKTGNRKTTTRRGFKTKKEAVAAAAEFQKEIDNNALARNDITFEDVFKEWWDVHSKTIKRSTRYRKLSNFKKHILPHFGKLKIKDITRAYCQKVINLIAQDIDSVQNVKIQANLVFKYALRMEYITKNPMEFVVIPKKEENFLSQEEEKRNFWEKDEIKTFLEKAHSQLAPQDYVMFYVLIFTGMRKGELIALEWKDVDLKEKTINIKQTMFFENGKEVIQTTKKYHSKRIITIDDQTAQILKKWRTQQKEMLLSNGITSEAKYVLIRGDMRPLRLAYPNDLLNRMITKNKLHRITIHGFRHSHASILFEAGASIKEVQARLGHKEIQTTMNIYTHVTKTAKAKTAETFKKYMEL,failed
7,MASFVESGWQYLVTHFSDFQLACIGSFLLHESVFFLSGLPFIFLERQGFLSKYKIQTKNNTPAAQGKCITRLLLYHFSVNLPLMLASYPVFRAMGMRSSFPLPSWKEVSAQILFYFIIEDFVFYWGHRILHSKWLYKNVHSVHHEYATPFGLTSEYAHPAEILFLGFATIVGPALTGPHLITLWLWMVLRVLETVEAHCGYHFPWSLSNFLPLYGGADFHDYHHRLLYTKSGNYSSTFVYMDWIFGTDKGYRRLKTLKENGDMKQT,failed
8,MASGSPPSQPSPASGSGYVPGSVSAAFVTCPNEKVAKEIARAVVEKRLAACVNLIPQITSIYEWKGKIEEDSEVLMMIKTQSSLVPALTEFVRSVHPYEVAEVIALPVEQGNPPYLHWVHQVTESV,not failed
9,MASIVMLLRALMSCRLTPKDEPETSDSSSSAAKLYRNIVGDENVTRKRISVVDTSHLGDNHEFIIETTCGSNDMDEGFYWIIVRNHLM,failed
10,MASKEAHVSLARGEQSVKRIKEFDPGKDSFSVLLLGIDAREKNGETVDQARSDANVLVTFNRKEKTAKMLSIPRDAYVNIPGHGYDKFTHAHAYGGVDLTVKTVEEMLDIPVDYVVESNFTAFEDVVNELNGVKVTVKSDKVIQQIKKDTKGKVVLQKGTHTLDGEEALAYVRTRKADSDLLRGQRQMEVLSAIIDKSKSLSSIPAYDDIVDTMGQNLKMNLSLKDAIGLFPFITSLKSVESIQLTGYDYEPAGVYYFKLNQQKLQEVKKELQNDLGVLEHHHHHH,not failed
11,MASKKPDKTYEEMVKEVERLKLENKTLKQKVKSSGAVSSDDSILTAAKRESIIVSSSRALGAVAMRKIEAKVRSRAAKAVTEQELTSLLQSLTLRVDVSMEELEHHHHHH,not failed
12,MASLAFIQAFLESFKGFLSQATLISVLIASVLILFCAILLLLALLLRNRLASYIATAAFLGAFLSMPFVLNILLTQAIYPIETRILHANPLSYSNAFSLQVGVKNHSKFTLNKCVLRLEVLKNPHNFVEEHAFKWFVKKSYEKIFKEKILPKESKVFSFFIDNYPYSKTAPYQVSLFCL,failed
13,MASLGFNLGFTFSNAQIQQHRKVSGGGRARVISCNSSSSSSSQASSPQGISAVTPLEIELEFFGPKPGSDGSYPVDKAKAVSGDKLLRSIMQDNKIELYAAYGKVMNCGGGGSCGTCIVEILDGRDLLNERTDTENRYLKKKPESWRLACQTIVGNKENSGKSALDIGCRAADSTVEEVN,failed
14,MASLGSAAAGEPATGAEAEPGPPAPPPPPPPPPAPSPSALGPLLPLQREPLYNWQATKASLKERFAFLFNSELLSDVRFVLGKGRGAAAAGGPQRIPAHRFVLAAGSAVFDAMFNGGMATTSAEIELPDVEPAAFLALLRFLYSDEVQIGPETVMTTLYTAKKYAVPALEAHCVEFLTKHLRADNAFMLLTQARLFDEPQLASLCLDTIDKSTVDAISAEGFTDIDIDTLCAVLERDTLSIRESRLFGAIVRWAEAECQRQQLAVTFGNKQKVLGKALSLIRFPLMTIEEFAAGPAQSGILSDREVVNLFLHFTVNPKPRVEYIDRPRCCLRGKECCINRFQQVESRWGYSGTSDRIRFTVNRRISVVGFGLYGSIHGPTDYQVNIQIIEYEKKQTLGQNDTGFSCDGTANTFRVMFKEPIEILPNVCYTACATLKGPDSHYGTKGLKKVVHETPAASKTVFLFFSSPGNNNGTSIEDGQIPEIIFYT,failed
15,MASMTMTSSFLPTVSNLPANISSNSRRSLTVVKASGSENTTSLENKKQEQSMKMRRDLVFTAAAAAVCSLAKVAMADDEPKRGTEAAKKKYAPVCVTMPTAKICRN,failed
16,MASRSKPSVRAFARQVHLWLGLSIGVLFAVVGLTGSILVFYTAIDDALHPEIRLRGAAPPPSWEQVYQTARATYPDKAGPWRFEVTEAGGDIPARYYKPPERADRDFAPMMVWFSADGGRVIRRDYWGEYAMTWVYDLHHRLLLQATGGAILGWSGLAMLALMVAGLTAWWPRRGGWRKALQMKPRAAPLRKLYDWHKQTGLWSFGLLVLLTLTGVLLALPKESEIALRPILGPPAGAPTIDKSITFDPGTRISVDQAVAIAQGALPGARLAWIETPSTDSGVYRLRLQTPGDPSRRFPHSFVWITPATGEVLAMTDARQAGAHDVLLNWTHPLHDASAGGLPARLLAVLVGLAPSALLILGFMRWRQRLRPQERKLSDHS,failed
17,MASRSRRPERRQEPLSRERIVGAAVELLDTVGERGLTFRALAERLATGPGAIYWHITGKAELLGAATDAVVTAAVTAGPTGAADSPQDAVRAVALGLWDATEAHPWLATQLATQLSRTPWGTVAPRIFESLGRQVQAMGVPEAHWFTASSALMHYILGAAGQNAANSASAGPVGADVDRDEFLDTVSTAWEGLDPDAYPFTRAVADQVRGHDDREQFLAGITLVLTGITALHRPGR,not failed
18,MASSAFAFPSYIITKGGLSTDSCKSTSLSSSRSLVTDLPSPCLKPNNNSHSNRRAKVCASLAEKGEYYSNRPPTPLLDTINYPIHMKNLSVKELKQLSDELRSDVIFNVSKTGGHLGSSLGVVELTVALHYIFNTPQDKILWDVGHQSYPHKILTGRRGKMPTMRQTNGLSGFTKRGESEHDCFGTGHSSTTISAGLGMAVGRDLKGKNNNVVAVIGDGAMTAGQAYEAMNNAGYLDSDMIVILNDNKQVSLPTATLDGPSPPVGALSSALSRLQSNPALRELREVAKGMTKQIGGPMHQLAAKVDEYARGMISGTGSSLFEELGLYYIGPVDGHNIDDLVAILKEVKSTRTTGPVLIHVVTEKGRGYPYAERADDKYHGVVKFDPATGRQFKTTNKTQSYTTYFAEALVAEAEVDKDVVAIHAAMGGGTGLNLFQRRFPTRCFDVGIAEQHAVTFAAGLACEGLKPFCAIYSSFMQRAYDQVVHDVDLQKLPVRFAMDRAGLVGADGPTHCGAFDVTFMACLPNMIVMAPSDEADLFNMVATAVAIDDRPSCFRYPRGNGIGVALPPGNKGVPIEIGKGRILKEGERVALLGYGSAVQSCLGAAVMLEERGLNVTVADARFCKPLDRALIRSLAKSHEVLITVEEGSIGGFGSHVVQFLALDGLLDGKLKWRPMVLPDRYIDHGAPADQLAEAGLMPSHIAATALNLIGAPREALF,failed
19,MASSISAAEVKVVPEEYNFLQKHVAFFDRNKDGIVYPSETFQGFRAIGCGYLLSTFAAVFINISLSSKTRPGKGFSFSFPIEVKNVRLGIHSSDSGVYDKDGRFVASKFEEIFAKHAHTHRDALTSKELKELLKANREPNDCKGGILAFGEWKVLYNLCKDKSGLLHKEIVRAVYDGSLFEQLEKQRSSKTP,failed
20,MASTGASRSLAASPRPPQGRSSRQDKYSVLLPTYNERENLPLIVWLLVKSFSESAINYEIIIIDDGSPDGTREVAEQLAEIYGPDRILLRPREKKLGLGTAYIHGIKHATGNYVIIMDADLSHHPKFIPEFIRKQKEGNFDIVSGTRYKGNGGVYGWDLKRKIISRGANFITQILLRPGASDLTGSFRLYRKEVLQKLIEKCVSKGYVFQMEMIVRARQMNYTIGEVPISFVDRVYGESKLGGNEIVSFLKGLLTLFATT,failed
21,MASVKLPWDLEEEILSRLPPRSLVRFRTVCKHWNGLFSDKRFVKKHLVRARPQFIFLTESKKMYSIEIDLGGTIEVREVPYDFHCQPMKKNFTTIMACDGLLFRDFWKQGVAVWNPWLRQVGWIEYEDKGFRFCGVGYDSCKPDKCYKILGYFNCTRRLSDSLQEGYYQAAIYECASQAFKFIDTPNPFNLWPNKDPLSVNGNLYWLAHNHPETLEYFIETFDFSMEIFKPFCLLPCRKDFGSNELVLAVFKEDRFSLLKQCFETTKIEIWVTKMKIDREEEVVWIKFMTLPTTNLPNLDDTYCCSSYFIFDKTIIMCCGDYKTGATCIYMVRGDMFKKIQINSGIFQFSYCVYLPNLISVPFESHQV,failed
22,MASVSGNSTAPDSAAVVTVQDPLSDYVQGLFLDMKGDYWGAIDIFRKVLVRKPADPAVHYSISQSYYRLAVLDSARVYGEAAVRLDPSNRYYLRYLAVVAHDMRDYDRAAELYGQASLLEPDRTEIMYLQGLEYMAAKRLEPALEVFRKAVRIDPYNEAAFAQTLALEIALKHYPEAIDTSKQLLKLGGNERKIGITLAELYTKTGQETLAVQTLQELIAGDRSNITYWIALFDHYIMVGRNDDFHRELAVFLERASLPPESLHDLAKLYILRSGKDSLYVAPTIALLDELTARRPRDSELFMLKGMFGMMHGHQQEGVVLFRKAVQLDSSNATAWEYLISTQLDLGQKRQAFALLAKARRRLPGQRFRWSVLEGSLLLSSHKLRRAVAVLETVAGTKRKPGDPNLLIQANINLAMACDLLGMKKRSRSAYERVLDLDPHNTLAMNNLAYLFTEEGITLRKALRLATNAVMLEPENGVYLDTLGWVHYKLGNFELARQFLEKAAATGLDEPDIYRHLGEVYRKLGNEPKAREMLEKARTVEKTQGNKKSGH,failed
